Consider 33 molecules from patent US20260193293A1, “PEPTIDES CAPABLE OF INHIBITING PROTEIN-PROTEIN INTERACTIONS AT GABAB1A SUBUNIT AND USES THEREOF” (UNIVERSITY OF COPENHAGEN, priority 2022, published 2026).

Non-standard residues stand in square brackets, D forms with d. NMeW = CN[C@@H](Cc1c[nH]c2ccccc12)C(=O)O; NMeR = CN[C@@H](CCCNC(=N)N)C(=O)O; NMeI = CC[C@H](C)[C@H](NC)C(=O)O; NMeT = CN[C@H](C(=O)O)[C@@H](C)O; NMeE = CN[C@@H](CCC(=O)O)C(=O)O; NMeD = CN[C@@H](CC(=O)O)C(=O)O; NMeV = CN[C@H](C(=O)O)C(C)C; NMeS = CN[C@@H](CO)C(=O)O; NMeA = CN[C@@H](C)C(=O)O; Sar = CNCC(=O)O

The chains are these.
B1: …(N-Me-S)RED (peptide)
peptide: Ac-PWAIVWGPTV[NMeS]RED-NH2
SMILES: CC[C@H](C)[C@H](NC(=O)[C@H](C)NC(=O)[C@H](Cc1c[nH]c2ccccc12)NC(=O)[C@@H]1CCCN1C(C)=O)C(=O)N[C@H](C(=O)N[C@@H](Cc1c[nH]c2ccccc12)C(=O)NCC(=O)N1CCC[C@H]1C(=O)N[C@H](C(=O)N[C@H](C(=O)N(C)[C@@H](CO)C(=O)N[C@@H](CCCNC(=N)N)C(=O)N[C@@H](CCC(=O)O)C(=O)N[C@@H](CC(=O)O)C(N)=O)C(C)C)[C@@H](C)O)C(C)C
B2: …(N-Me-D) (peptide)
peptide: Ac-PWAIVWGPTVSRE[NMeD]-NH2
SMILES: CC[C@H](C)[C@H](NC(=O)[C@H](C)NC(=O)[C@H](Cc1c[nH]c2ccccc12)NC(=O)[C@@H]1CCCN1C(C)=O)C(=O)N[C@H](C(=O)N[C@@H](Cc1c[nH]c2ccccc12)C(=O)NCC(=O)N1CCC[C@H]1C(=O)N[C@H](C(=O)N[C@H](C(=O)N[C@@H](CO)C(=O)N[C@@H](CCCNC(=N)N)C(=O)N[C@@H](CCC(=O)O)C(=O)N(C)[C@@H](CC(=O)O)C(N)=O)C(C)C)[C@@H](C)O)C(C)C
B3: …(N-Me-V)SRED (peptide)
peptide: Ac-PWAIVWGPT[NMeV]SRED-NH2
SMILES: CC[C@H](C)[C@H](NC(=O)[C@H](C)NC(=O)[C@H](Cc1c[nH]c2ccccc12)NC(=O)[C@@H]1CCCN1C(C)=O)C(=O)N[C@H](C(=O)N[C@@H](Cc1c[nH]c2ccccc12)C(=O)NCC(=O)N1CCC[C@H]1C(=O)N[C@H](C(=O)N(C)[C@H](C(=O)N[C@@H](CO)C(=O)N[C@@H](CCCNC(=N)N)C(=O)N[C@@H](CCC(=O)O)C(=O)N[C@@H](CC(=O)O)C(N)=O)C(C)C)[C@@H](C)O)C(C)C
B4: PWAI(N-Me-V)… (peptide)
peptide: Ac-PWAI[NMeV]WGPTVSRED-NH2
SMILES: CC[C@H](C)[C@H](NC(=O)[C@H](C)NC(=O)[C@H](Cc1c[nH]c2ccccc12)NC(=O)[C@@H]1CCCN1C(C)=O)C(=O)N(C)[C@H](C(=O)N[C@@H](Cc1c[nH]c2ccccc12)C(=O)NCC(=O)N1CCC[C@H]1C(=O)N[C@H](C(=O)N[C@H](C(=O)N[C@@H](CO)C(=O)N[C@@H](CCCNC(=N)N)C(=O)N[C@@H](CCC(=O)O)C(=O)N[C@@H](CC(=O)O)C(N)=O)C(C)C)[C@@H](C)O)C(C)C
B5: PWA(N-Me-I)… (peptide)
peptide: Ac-PWA[NMeI]VWGPTVSRED-NH2
SMILES: CC[C@H](C)[C@@H](C(=O)N[C@H](C(=O)N[C@@H](Cc1c[nH]c2ccccc12)C(=O)NCC(=O)N1CCC[C@H]1C(=O)N[C@H](C(=O)N[C@H](C(=O)N[C@@H](CO)C(=O)N[C@@H](CCCNC(=N)N)C(=O)N[C@@H](CCC(=O)O)C(=O)N[C@@H](CC(=O)O)C(N)=O)C(C)C)[C@@H](C)O)C(C)C)N(C)C(=O)[C@H](C)NC(=O)[C@H](Cc1c[nH]c2ccccc12)NC(=O)[C@@H]1CCCN1C(C)=O
B6: PWAIVWGP(N-Me-T)VSRED (peptide)
peptide: Ac-PWAIVWGP[NMeT]VSRED-NH2
SMILES: CC[C@H](C)[C@H](NC(=O)[C@H](C)NC(=O)[C@H](Cc1c[nH]c2ccccc12)NC(=O)[C@@H]1CCCN1C(C)=O)C(=O)N[C@H](C(=O)N[C@@H](Cc1c[nH]c2ccccc12)C(=O)NCC(=O)N1CCC[C@H]1C(=O)N(C)[C@H](C(=O)N[C@H](C(=O)N[C@@H](CO)C(=O)N[C@@H](CCCNC(=N)N)C(=O)N[C@@H](CCC(=O)O)C(=O)N[C@@H](CC(=O)O)C(N)=O)C(C)C)[C@@H](C)O)C(C)C
B7: PWAIVW(N-Me-G)PTVSRED (peptide)
peptide: Ac-PWAIVW[Sar]PTVSRED-NH2
SMILES: CC[C@H](C)[C@H](NC(=O)[C@H](C)NC(=O)[C@H](Cc1c[nH]c2ccccc12)NC(=O)[C@@H]1CCCN1C(C)=O)C(=O)N[C@H](C(=O)N[C@@H](Cc1c[nH]c2ccccc12)C(=O)N(C)CC(=O)N1CCC[C@H]1C(=O)N[C@H](C(=O)N[C@H](C(=O)N[C@@H](CO)C(=O)N[C@@H](CCCNC(=N)N)C(=O)N[C@@H](CCC(=O)O)C(=O)N[C@@H](CC(=O)O)C(N)=O)C(C)C)[C@@H](C)O)C(C)C
B8: …(N-Me-R)ED (peptide)
peptide: Ac-PWAIVWGPTVS[NMeR]ED-NH2
SMILES: CC[C@H](C)[C@H](NC(=O)[C@H](C)NC(=O)[C@H](Cc1c[nH]c2ccccc12)NC(=O)[C@@H]1CCCN1C(C)=O)C(=O)N[C@H](C(=O)N[C@@H](Cc1c[nH]c2ccccc12)C(=O)NCC(=O)N1CCC[C@H]1C(=O)N[C@H](C(=O)N[C@H](C(=O)N[C@@H](CO)C(=O)N(C)[C@@H](CCCNC(=N)N)C(=O)N[C@@H](CCC(=O)O)C(=O)N[C@@H](CC(=O)O)C(N)=O)C(C)C)[C@@H](C)O)C(C)C
B9: PW(N-Me-A)… (peptide)
peptide: Ac-PW[NMeA]IVWGPTVSRED-NH2
SMILES: CC[C@H](C)[C@H](NC(=O)[C@H](C)N(C)C(=O)[C@H](Cc1c[nH]c2ccccc12)NC(=O)[C@@H]1CCCN1C(C)=O)C(=O)N[C@H](C(=O)N[C@@H](Cc1c[nH]c2ccccc12)C(=O)NCC(=O)N1CCC[C@H]1C(=O)N[C@H](C(=O)N[C@H](C(=O)N[C@@H](CO)C(=O)N[C@@H](CCCNC(=N)N)C(=O)N[C@@H](CCC(=O)O)C(=O)N[C@@H](CC(=O)O)C(N)=O)C(C)C)[C@@H](C)O)C(C)C
B10: …(N-Me-E)D (peptide)
peptide: Ac-PWAIVWGPTVSR[NMeE]D-NH2
SMILES: CC[C@H](C)[C@H](NC(=O)[C@H](C)NC(=O)[C@H](Cc1c[nH]c2ccccc12)NC(=O)[C@@H]1CCCN1C(C)=O)C(=O)N[C@H](C(=O)N[C@@H](Cc1c[nH]c2ccccc12)C(=O)NCC(=O)N1CCC[C@H]1C(=O)N[C@H](C(=O)N[C@H](C(=O)N[C@@H](CO)C(=O)N[C@@H](CCCNC(=N)N)C(=O)N(C)[C@@H](CCC(=O)O)C(=O)N[C@@H](CC(=O)O)C(N)=O)C(C)C)[C@@H](C)O)C(C)C
B11: PWAIV(N-Me-W)GPTVSRED (peptide)
peptide: Ac-PWAIV[NMeW]GPTVSRED-NH2
SMILES: CC[C@H](C)[C@H](NC(=O)[C@H](C)NC(=O)[C@H](Cc1c[nH]c2ccccc12)NC(=O)[C@@H]1CCCN1C(C)=O)C(=O)N[C@H](C(=O)N(C)[C@@H](Cc1c[nH]c2ccccc12)C(=O)NCC(=O)N1CCC[C@H]1C(=O)N[C@H](C(=O)N[C@H](C(=O)N[C@@H](CO)C(=O)N[C@@H](CCCNC(=N)N)C(=O)N[C@@H](CCC(=O)O)C(=O)N[C@@H](CC(=O)O)C(N)=O)C(C)C)[C@@H](C)O)C(C)C

The target of the assay is Sushi domains (SD1/2) protein of the GABAB1a (GB1a) subunit, recombinant. Kind of assay: FP competition.
Sequence of Sushi domains (SD1/2) protein of the GABAB1a (GB1a) subunit, recombinant (Q9Z0U4 29-158): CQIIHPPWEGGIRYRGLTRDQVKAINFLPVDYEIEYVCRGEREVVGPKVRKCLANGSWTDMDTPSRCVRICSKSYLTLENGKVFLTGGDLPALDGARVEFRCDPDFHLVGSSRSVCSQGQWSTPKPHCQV
The Ki is a dissociation constant, usually derived from enzyme kinetics or from competition with a known ligand. As for Ac-KDDSDVWWGGADTD-NH2, the Ki was found to be 1.53 µM.
The result for Ac-EDDSDVWWGGHDTD-NH2 reads 0.346 µM; that for B1, 1.04 µM; that for Ac-EDDWDVWWGGADTD-NH2, 0.257 µM.
Consider Ac-EDDSIVWWGGADTD-NH2, for which the Ki is 0.243 µM.
With B2, the Ki worked out at 0.434 µM.
In the case of Ac-EDDSDVIWGGADTD-NH2, the Ki was found to be 0.951 µM.
Take Ac-EDDSDVWWHGADTD-NH2: the Ki was determined as 0.27 µM.
The result for Ac-EDDDWIDWYDSDDDEAAAKRRRRRRRR-NH2 [16-RL-R8 (…)] reads 0.1 µM; that for B3, 1.78 µM; that for B4, 7 µM.
The result for Ac-EDDSFVWWGGADTD-NH2 reads 0.142 µM; that for Ac-RRRRRRRREAAAKEDDDWIDWYDSDDD-NH2 [R8-RL-16 (…)], 0.314 µM; that for Ac-EDDSDVWWGGADED-NH2, 0.337 µM.
With Ac-EDDSDVYWGGADTD-NH2, the Ki is 3.6 µM.
Take Ac-EDDSDVWWGGYDTD-NH2: the Ki came out at 0.255 µM.
With B5, the Ki amounted to 0.37 µM.
Turning to Ac-EDDSDVWWGGSDTD-NH2, the Ki amounted to 0.204 µM.
The result for Ac-EDDSDVWWDGADTD-NH2 reads 0.429 µM; that for Ac-EDDSDVDWGGADTD-NH2, 4.8 µM; that for B6, 1.27 µM.
The value for B7 was 58.3 µM; that for B8 was 0.502 µM; that for Ac-EDDSDIWWGGADTD-NH2 was 0.401 µM.
As for Ac-EDDDWIDWYDSDDDRRRRRRRR-NH2 [16-R8 (…)], the inhibition constant (Ki) is 0.065 µM.
On to B9, for which the Ki is 7.23 µM.
Consider Ac-EDDSDVWWGPADTD-NH2, for which the Ki was determined as 0.332 µM.
Consider Ac-EDDSDVWWGGADHD-NH2, for which the Ki was determined as 0.739 µM.
In the case of Ac-EDDSYVWWGGADTD-NH2, the Ki is 0.191 µM.
The value for Ac-EDDSDVWWGGADWD-NH2 was 0.459 µM; that for B10 was 0.523 µM; that for Ac-RRRRRRRRGGGGSEDDDWIDWYDSDDD-NH2 [R8-FL-16 (…)] was 0.28 µM.
On to B11, for which the Ki was 0.636 µM.
